Numbering of substitutions follows the chain as printed.
Assays:
Human latent myostatin [1] = molecular target: T1, Human latent myostatin (human, UniProt O14793 25-266; O14793 267-375); assay: SPR (BIACORE T200), 37 C, pH5.8, avidity condition (capture 185 RU), 1:1 fit; pH 5.8
T1 construct: Biotinylated in the ELISAs; also called human myostatin latent form
T1 sequence 1: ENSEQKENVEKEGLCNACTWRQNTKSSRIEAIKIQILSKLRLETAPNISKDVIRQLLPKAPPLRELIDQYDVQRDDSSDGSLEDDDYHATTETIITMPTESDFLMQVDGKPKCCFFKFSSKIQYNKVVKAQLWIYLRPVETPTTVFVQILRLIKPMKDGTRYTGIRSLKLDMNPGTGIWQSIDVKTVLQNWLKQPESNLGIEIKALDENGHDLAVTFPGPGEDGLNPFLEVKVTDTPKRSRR
T1 sequence 2: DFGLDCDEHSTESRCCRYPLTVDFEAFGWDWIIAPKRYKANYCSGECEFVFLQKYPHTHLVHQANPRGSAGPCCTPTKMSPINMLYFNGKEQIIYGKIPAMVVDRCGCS
Description: (§1) The kinetic parameters of anti-latent myostatin antibodies against human, cynomolgus monkey (cyno), and mouse latent myostatin were assessed at 37° C. at pH7.4 using a BIACORE® T200 instrument (GE Healthcare). ProA/G (Pierce) was immobilized onto all flow cells of a CM4 chip using amine coupling kit (GE Healthcare). Anti-latent myostatin antibody and analytes were prepared in ACES pH7.4 (20 mM ACES, 150 mM NaCl, 1.2 mM CaCl₂), 0.05% TWEEN® 20, 0.005% NaN₃). […] Then human, cyno, or mouse latent myostatin was injected at 3.125 to 50 nM prepared by two-fold serial dilution, followed by dissociation. The sensor surface was regenerated with 25 mM NaOH. Kinetic parameters were determined by processing and fitting the data to a 1:1 binding model using BIACORE® T200 Evaluation software, version 2.0 (GE Healthcare).
All experimental settings were the same as in Example 7, except that measurements were also performed in ACES pH5.8 buffer in addition to ACES pH7.4 condition. Some antibodies were only measured against human latent myostatin. Antibody capture level was aimed at 185 RU and 18.5 RU, for avidity and affinity assay, respectively. Kinetic parameters were determined using 1:1 Binding fitting using BIACORE® T200 Evaluation software, version 2.0 (GE Healthcare).

Human latent myostatin [2] = molecular target: T1, Human latent myostatin; assay: SPR (BIACORE T200), 37 C, pH7.4, avidity condition (capture 185 RU), 1:1 fit; pH 7.4
Mouse latent myostatin = molecular target: T2, Mouse latent myostatin (mouse, UniProt O08689 26-267; O08689 268-376); assay: as above
T2 construct: signal 1-24
T2 sequence 1: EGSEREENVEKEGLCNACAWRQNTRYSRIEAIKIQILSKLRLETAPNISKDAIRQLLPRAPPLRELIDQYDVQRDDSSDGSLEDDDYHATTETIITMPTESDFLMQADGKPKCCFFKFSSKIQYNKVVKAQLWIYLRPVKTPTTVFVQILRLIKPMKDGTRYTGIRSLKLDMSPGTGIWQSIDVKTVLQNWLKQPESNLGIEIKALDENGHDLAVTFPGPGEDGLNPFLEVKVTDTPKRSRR
T2 sequence 2: T1 sequence 2

[3] = molecular target: T3, Cynomolgus monkey latent myostatin (cynomolgus monkey, UniProt Q95J86 25-266; Q95J86 267-375); assay: as above
T3 construct: signal 1-24; also called Cyno latent myostatin
T3 sequence 1: T1 sequence 1 with V52A
T3 sequence 2: T1 sequence 2

Human latent myostatin [4] = molecular target: T1, Human latent myostatin; assay: SPR (BIACORE) as in Example 7; antigen not given, values equal those for human latent myostatin in Table 7
Description: as §1
Humanized antibodies were transiently expressed in FS293-F cells, and HEK Blue Assay and BIACORE® analysis were carried out as described above.

[5] = molecular target: T4, cynomolgus monkey FcγRIIIaS extracellular domain with C-terminal His-tag (cynomolgus monkey, UniProt Q8SPW2 21-206 at identity 1.00)); assay: SPR (Biacore); KD of SG1 divided by KD of the variant for this FcgR;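 further: relative to parent M103205H795-SG1 carrying the SG1 human heavy chain constant region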
T4 construct: Expressed in FreeStyle 293 cells and purified; also called cyno FcγRIIIaS; cynoFcγRIIIaS; not shown: C-terminal His-tag
T4 chain: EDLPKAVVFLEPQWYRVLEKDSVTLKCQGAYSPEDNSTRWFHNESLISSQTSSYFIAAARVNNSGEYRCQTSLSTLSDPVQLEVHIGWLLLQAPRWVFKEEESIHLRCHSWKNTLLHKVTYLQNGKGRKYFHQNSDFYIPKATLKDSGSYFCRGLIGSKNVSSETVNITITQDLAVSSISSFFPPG

B1: MS_M103205H000-SG1/M103202LO00-SK1 (antibody, human IgG1, kappa, V domains shown)
VH: QVTLKESGPVLVKPTETLTLTCTVSGIDLSSYDISWVRQAPGKGLEWVGIISYAGSTYYASWAKGRLTISKDTSKNQVVLTMTNMDPVDTATYYCARGVPAYSTGGDLWGQGTLVTVSS
VL: DIVMTQSPATLSLSPGERATLSCQSSQSVYDNNWLSWFQQKPGQPPKLLIYWASTLASGVPSRFSGSGSGTDFTLTISSLQPEDAATYYCAGGYGGGLYAFGQGTKVEIKR
notes: Humanized MST1032, not pH-dependent; also called MS1032LO00-SG1; Ab001
Human latent myostatin [1]
  Kd: 0.0797 nM
  koff: 0.000128 s⁻¹
  kon: 1.6e+06 M⁻¹ s⁻¹
Human latent myostatin [2]
  Kd: 0.075 nM
  koff: 9.52e-05 s⁻¹
  kon: 1.27e+06 M⁻¹ s⁻¹
Mouse latent myostatin
  Kd: 0.0471 nM
  koff: 7.18e-05 s⁻¹
  kon: 1.52e+06 M⁻¹ s⁻¹
[3]
  Kd: 0.066 nM
  koff: 8.08e-05 s⁻¹
  kon: 1.21e+06 M⁻¹ s⁻¹
Human latent myostatin [4]
  Kd: 0.075 nM
  koff: 9.52e-05 s⁻¹
  kon: 1.27e+06 M⁻¹ s⁻¹

B2: M103205H795-MY172 / M103202L889-SK1 (antibody, human IgG1, kappa)
heavy: QVTLKESGPVLVKPTETLTLTCTVSGIDLSHDDISWVRQAPGKGLEWVGIISYAGSTYYASWAKGRLTISKDTSKNQVVLTMTNMDPVDTATYYCARGVPAYSHGGDLWGQGTLVTVSSASTKGPSVFPLAPSSKSTSGGTAALGCLVKDYFPEPVTVSWNSGALTSGVHTFPAVLQSSGLYSLSSVVTVPSSSLGTQTYICNVNHKPSNTKVDKKVEPKSCDKTHTCPPCPAPELLNGPSVFLFPPKPKDTLMISRTPEVTCVVVDVSEEDPEVKFNWYVDGVEVHNAKTKPREEQYNSTYRVVSVLTVLHQDWLNGKEYKCKVSNKALPAPIEKTISKAKGQPREPQVYTLPPSREEMTKNQVSLTCLVKGFYPSDIAVEWESNGQPENNYKTTPGVLDSDGSFFLYSKLTVDKSRWQQGNVFSCSVMHEALHNHYTQKSLSLSP
light: DIVMTQSPATLSLSPGERATLSCTSSQSVYHANWLSWFQQKPGQPPKLLIYWASTLAYGVPSRFSGSGSGTDFTLTISSLQPEDAATYYCAGGYGGGRYAFGQGTKVEIKRTVAAPSVFIFPPSDEQLKSGTASVVCLLNNFYPREAKVQWKVDNALQSGNSQESVTEQDSKDSTYSLSSTLTLSKADYEKHKVYACEVTHQGLSSPVTKSFNRGEC
notes: Position 396 variant derived from MY052, expressed with M103202L889-SK1 as light chain
[5]
  KD fold (SG1 = 1): 0.11 fold

B3: M103205H795-MY182 / M103202L889-SK1 (antibody, human IgG1, kappa)
heavy: B2 heavy with G398V
light: B2 light
notes: as for B2
[5]
  KD fold (SG1 = 1): 0.1 fold

B4: M103205H795-MY177 / M103202L889-SK1 (antibody, human IgG1, kappa)
heavy: B2 heavy with G398N
light: B2 light
notes: as for B2
[5]
  KD fold (SG1 = 1): 0.12 fold

B5: M103205H795-MY176 / M103202L889-SK1 (antibody, human IgG1, kappa)
heavy: B2 heavy with G398L
light: B2 light
notes: as for B2
[5]
  KD fold (SG1 = 1): 0.16 fold

B6: M103205H795-MY178 / M103202L889-SK1 (antibody, human IgG1, kappa)
heavy: B2 heavy with G398Q
light: B2 light
notes: as for B2
[5]
  KD fold (SG1 = 1): 0.12 fold

B7: M103205H795-MY180 / M103202L889-SK1 (antibody, human IgG1, kappa)
heavy: B2 heavy with G398S
light: B2 light
notes: as for B2
[5]
  KD fold (SG1 = 1): 0.12 fold

B8: M103205H795-MY173 / M103202L889-SK1 (antibody, human IgG1, kappa)
heavy: B2 heavy with G398H
light: B2 light
notes: as for B2
[5]
  KD fold (SG1 = 1): 0.12 fold

B9: M103205H795-MY183 / M103202L889-SK1 (antibody, human IgG1, kappa)
heavy: B2 heavy with G398W
light: B2 light
notes: as for B2
[5]
  KD fold (SG1 = 1): 0.1 fold

B10: M103205H795-MY184 / M103202L889-SK1 (antibody, human IgG1, kappa)
heavy: B2 heavy with G398Y
light: B2 light
notes: as for B2
[5]
  KD fold (SG1 = 1): 0.11 fold

B11: M103205H795-MY175 / M103202L889-SK1 (antibody, human IgG1, kappa)
heavy: B2 heavy with G398K
light: B2 light
notes: as for B2
[5]
  KD fold (SG1 = 1): 0.14 fold

B12: M103205H795-MY179 / M103202L889-SK1 (antibody, human IgG1, kappa)
heavy: B2 heavy with G398R
light: B2 light
notes: as for B2
[5]
  KD fold (SG1 = 1): 0.13 fold

B13: M103205H795-MY174 / M103202L889-SK1 (antibody, human IgG1, kappa)
heavy: B2 heavy with G398I
light: B2 light
notes: as for B2
[5]
  KD fold (SG1 = 1): 0.14 fold

B14: M103205H795-MY181 / M103202L889-SK1 (antibody, human IgG1, kappa)
heavy: B2 heavy with G398T
light: B2 light
notes: as for B2
[5]
  KD fold (SG1 = 1): 0.09 fold
